The values that follow are results of earlier work, collected in article PMC12005733.

Usually Kd stands for the concentration at which binding is half-saturated.

This data set addresses Calbindin D9k C-terminal split part C-terminal half (Bos taurus) (UniProt P02633).

With “Calbindin D9k N-terminal split part N-terminal half (from UniProt P02633)”, the dissociation constant (Kd) was 3 pM.
